Test results taken from EP2085478A1.

Molecular target: XKVLQT1 (Xenopus KVLQT1 homologue, 1.6 kb partial clone) (Xenopus) (UniProt P70057)
Experiment: cell-based or functional assay

Sequence of UniProt P70057 (P70057 other isoform, or with tags, fused parts or gaps): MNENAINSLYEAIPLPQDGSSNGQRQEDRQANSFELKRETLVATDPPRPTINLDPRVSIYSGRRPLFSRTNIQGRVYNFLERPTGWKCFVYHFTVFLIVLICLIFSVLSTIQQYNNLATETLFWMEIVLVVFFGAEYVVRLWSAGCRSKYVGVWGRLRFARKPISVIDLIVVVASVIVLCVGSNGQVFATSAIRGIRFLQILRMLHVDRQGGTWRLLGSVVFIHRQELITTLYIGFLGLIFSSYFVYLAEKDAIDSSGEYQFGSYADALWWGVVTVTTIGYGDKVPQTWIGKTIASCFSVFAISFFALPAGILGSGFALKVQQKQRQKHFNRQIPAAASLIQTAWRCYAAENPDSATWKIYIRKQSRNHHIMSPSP

- IsK at +40 mV, oocytes injected with 60 pg hminK cRNA: 2.11 µA
- IsK at +40 mV, oocytes injected with 1 ng hminK cRNA: 2.2 µA
- V½ of the normalized isochronal activation curve, oocytes injected with hminK: 2.4 mV
Substance: human minK (from UniProt P15382 1-129)
